Laboratory results published in patent publication US20030148958A1 (PROCTER AND GAMBLE, published 2003).
Positions count from the first letter of the chain named. Ends that are not written are not given here.

B1: SEQ ID NO 256 (peptide)
peptide: ZGPPISIDVPFQLLRKMIEIEKQEKEKQQAANNRLLLDTI
modifications: C-terminal amide
B2: SEQ ID NO 257 (peptide)
peptide: NDDPPISIDLPLFLLRNMIEMARIENEREQAGLNAKYLAEV-NH2
B3: SEQ ID NO 258 (peptide)
peptide: NDDPPISIDLPFQLLRNMIEMARIENEREQAGLNAKYLAEV-NH2
B4: SEQ ID NO 259 (peptide)
peptide: NDDPPISIDLPLHLLRNMIEMARIENEREQAGLNAKYLAEV-NH2
B5: SEQ ID NO 260 (peptide)
peptide: NDDPPISIDLPFLLLRNMIEMARIENEREQAGLNAKYLAEV-NH2
B6: SEQ ID NO 261 (peptide)
peptide: NDDPPISIDLPFYLLRNMIEMARIENEREQAGLNAKYLAEV-NH2
B7: SEQ ID NO 262 (peptide)
peptide: NDDPPISIDLPFHLLRNMIEMARIENEREQAGLNAKYLAEV-NH2
B8: SEQ ID NO 263 (peptide)
peptide: DNPSLSIDLPYYLLRTLLELARTQSQRERAEQNAIIFASV-NH2
B9: SEQ ID NO 264 (peptide)
peptide: NDDPPISIDLPFFLLRNMIEMARIENEREQAGLNAKYLAEV-NH2
B10: SEQ ID NO 265 (peptide)
peptide: NDDPPISIDLPQYLLRNMIEMARIENEREQAGLNAKYLAEV-NH2
B11: SEQ ID NO 266 (peptide)
peptide: NDDPPISIDLPTYLLRNMIEMARIENEREQAGLNAKYLAEV-NH2
B12: SEQ ID NO 267 (peptide)
peptide: NDDPPISIDLPYYLLRNMIEMARIENEREQAGLNAKYLAEV-NH2
B13: SEQ ID NO 268 (peptide)
peptide: NDDPPISIDLPLLLLRNMIEMARIENEREQAGLNAKYLAEV-NH2
B14: SEQ ID NO 269 (peptide)
peptide: NDDPPISIDLPLILLRNMIEMARIENEREQAGLNAKYLAEV-NH2
B15: SEQ ID NO 192 (peptide)
peptide: B1 peptide with V9L, F11I, Q12W
modifications: C-terminal amide
B16: SEQ ID NO 193 (peptide)
peptide: B1 peptide with V9L, F11L, Q12V
modifications: C-terminal amide
B17: SEQ ID NO 194 (peptide)
peptide: B1 peptide with V9L, F11L, Q12I
modifications: C-terminal amide
B18: SEQ ID NO 195 (peptide)
peptide: B1 peptide with V9L, F11L, Q12F
modifications: C-terminal amide
B19: SEQ ID NO 196 (peptide)
peptide: B1 peptide with V9L, F11Q, Q12L
modifications: C-terminal amide
B20: SEQ ID NO 20 (peptide)
peptide: ZGPPISIDLPFQLLRKMIEIEKQEKEKQQATTNARLLDTV
modifications: C-terminal amide
B21: SEQ ID NO 199 (peptide)
peptide: B1 peptide with V9L, F11Q, Q12I
modifications: C-terminal amide
B22: SEQ ID NO 200 (peptide)
peptide: B1 peptide with V9L, F11Y, Q12T
modifications: C-terminal amide
B23: SEQ ID NO 201 (peptide)
peptide: B1 peptide with V9L, F11Y, Q12V
modifications: C-terminal amide
B24: SEQ ID NO 202 (peptide)
peptide: B1 peptide with V9L, F11Y
modifications: C-terminal amide
B25: SEQ ID NO 203 (peptide)
peptide: B1 peptide with V9L, F11Y, Q12L
modifications: C-terminal amide
B26: SEQ ID NO 204 (peptide)
peptide: B1 peptide with V9L, F11Y, Q12I
modifications: C-terminal amide
B27: SEQ ID NO 205 (peptide)
peptide: B1 peptide with V9L, F11H, Q12H
modifications: C-terminal amide
B28: SEQ ID NO 206 (peptide)
peptide: B1 peptide with V9L, F11A, Q12H
modifications: C-terminal amide
B29: SEQ ID NO 207 (peptide)
peptide: B1 peptide with V9L, F11Q, Q12H
modifications: C-terminal amide
B30: SEQ ID NO 208 (peptide)
peptide: B1 peptide with V9L, F11Y, Q12H
modifications: C-terminal amide
B31: SEQ ID NO 21 (peptide)
peptide: B20 peptide with D38A
modifications: C-terminal amide
B32: SEQ ID NO 209 (peptide)
peptide: B1 peptide with V9L, F11W, Q12H
modifications: C-terminal amide
B33: SEQ ID NO 210 (peptide)
peptide: B1 peptide with V9L, F11W
modifications: C-terminal amide
B34: SEQ ID NO 211 (peptide)
peptide: B1 peptide with V9L, F11A
modifications: C-terminal amide
B35: SEQ ID NO 22 (peptide)
peptide: B20 peptide with T39R
modifications: C-terminal amide
B36: SEQ ID NO 23 (peptide)
peptide: B20 peptide with D38A, T39R
modifications: C-terminal amide
B37: SEQ ID NO 24 (peptide)
peptide: B1 peptide with V9L, F11I, Q12T
modifications: C-terminal amide

Key:
Test in all cases: cell-based or functional assay
CRF2R = target: T1, CRF2R
T1 sequence (Q13324 whole entry, species assumed, looked up): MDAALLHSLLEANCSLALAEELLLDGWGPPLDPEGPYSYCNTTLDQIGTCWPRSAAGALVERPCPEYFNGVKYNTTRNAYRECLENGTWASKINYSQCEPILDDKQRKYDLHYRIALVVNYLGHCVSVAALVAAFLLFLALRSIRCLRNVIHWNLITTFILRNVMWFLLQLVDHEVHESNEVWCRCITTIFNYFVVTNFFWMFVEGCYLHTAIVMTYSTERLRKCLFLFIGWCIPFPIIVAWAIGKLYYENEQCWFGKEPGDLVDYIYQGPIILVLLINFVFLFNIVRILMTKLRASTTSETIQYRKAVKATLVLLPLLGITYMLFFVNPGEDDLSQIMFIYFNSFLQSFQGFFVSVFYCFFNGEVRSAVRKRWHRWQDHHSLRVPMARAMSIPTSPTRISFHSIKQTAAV

CRF1R = target: CRF1R
[1] = target: T2, corticotropin releasing factor 2 receptor
T2 sequence (Q13324 whole entry, species assumed, looked up): T1 sequence (Q13324 whole entry, species assumed, looked up)

[2] = target: corticotropin releasing factor 1 receptor
Wherever CRF1R Emax % is given: reference of the scale not given here.
Wherever CRF1R Emax is given: reference of the scale not given here.
Wherever CRF2R Emax % is given: reference of the scale not given here.
Wherever CRF2R Emax is given: reference of the scale not given here.

Binder	CRF2R EC50 (CRF2R) [nM]	CRF2R Emax % (CRF2R) [%]	CRF1R EC50 (CRF1R) [nM]	CRF1R Emax % (CRF1R) [%]	CRF2R EC50 [1] [nM]	CRF2R Emax [1] [%]	CRF1R EC50 [2] [nM]	CRF1R Emax [2] [%]
B1	12.6	100	254	100	–	–	–	–
B2	100	72.6	744	83.5	–	–	–	–
B3	100	49.3	1000	23.6	–	–	–	–
B4	100	65	820	83.6	–	–	–	–
B5	100	89.3	834	89.7	–	–	–	–
B6	100	95.3	274	100	–	–	–	–
B7	100	92.2	408	100	–	–	–	–
B8	36.2	93	802	72	–	–	–	–
B9	100	66.3	704	100	–	–	–	–
B10	100	23.4	1000	9.3	–	–	–	–
B11	100	19.4	1000	4.45	–	–	–	–
B12	100	44.2	1000	22.8	–	–	–	–
B13	100	59	1000	14.2	–	–	–	–
B14	100	77.3	1000	44.3	–	–	–	–
B15	–	–	–	–	66.8	97	562	99
B16	–	–	–	–	10.1	97	266	95
B17	–	–	–	–	5	96	106	94
B18	–	–	–	–	18.8	–	103	93
B19	–	–	–	–	27.7	97	447	96

Binder	CRF2R EC50 (CRF2R) [nM]	CRF2R Emax % (CRF2R) [%]	CRF1R EC50 (CRF1R) [nM]	CRF1R Emax % (CRF1R) [%]	CRF2R EC50 [1] [nM]	CRF2R Emax [1] [%]	CRF1R EC50 [2] [nM]	CRF1R Emax [2] [%]
B20	–	–	–	–	7.81	99	906	60
B21	–	–	–	–	8.5	92	706	93
B22	–	–	–	–	8.8	100	188	99
B23	–	–	–	–	5	100	99.6	80
B24	–	–	–	–	8.7	99	404	100
B25	–	–	–	–	5.2	94	76.2	86
B26	–	–	–	–	3.6	93	32.1	74
B27	–	–	–	–	25	93	126	88
B28	–	–	–	–	30.5	97	696	97
B29	–	–	–	–	61.4	96	466	88
B30	–	–	–	–	5.6	88	64.9	81
B31	–	–	–	–	8.46	96	908	88
B32	–	–	–	–	7.4	93	26.4	80
B33	–	–	–	–	10.2	97	43.5	90
B34	–	–	–	–	59.5	100	826	37
B35	–	–	–	–	8.33	100	1000	64
B36	–	–	–	–	10.2	100	1000	82
B37	–	–	–	–	43.1	100	> 1000	18
